From the supplement of paper PMC10567573
± gives the standard deviation.

Assay: protein stability index of a GFP-peptide fusion (GPS, HEK-293T) (PSI 1-6); higher = more stable
[1] = treatment: DMSO, c terminus: a fixed tail appended
[2] = treatment: MLN4924 1 uM, 8 h, c terminus: a fixed tail appended
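Also: 24-mer peptide tiles fused after GFP, lentivirally expressed, FACS-sorted into six equal bins by GFP/DsRed ratio, decoded by Illumina sequencing, PSI is the read-weighted mean bin number.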

| Sequence | protein stability index [1] | protein stability index [2] | protein stability index (treatment: DMSO, c terminus: native) | protein stability index (treatment: MLN4924 1 uM, 8 h, c terminus: native) |
| --- | --- | --- | --- | --- |
| VYLLGNPVVWWLNLLSIALYLLSG [POMT2] | 3.31 ± 0.95 | 2.96 ± 0.56 |  |  |
| HTKRLYRAVVEAVHRLDLILCNKT [SMG5] | 2.77 ± 0.36 | 2.82 ± 0.65 |  |  |
| IKRGDILPPEKGREVAKELGLPYY [RHOBTB1] | 3.2 ± 0.22 | 3.37 ± 0.39 |  |  |
| ANYIDGYRKQNAYIATQGSLPETF [PTPRD] | 2.94 ± 0.25 | 3.13 ± 0.45 |  |  |
| GTIRPVRCPSSSLHMSQRERTWPP [C22orf15] | 3.77 ± 0.098 | 3.75 ± 0.17 |  |  |
| KLSFRARAYGFRGPGPQLRRGWRP [CHGA] | 3.01 ± 0.2 | 3.08 ± 0.29 |  |  |
| HSCVQIKNDVFICGGYNGEVILGD [KLHDC10] | 1.94 ± 0.27 | 2.62 ± 0.42 |  |  |
| VLEGPAPWGFRLQGGKDFNVPLSI [PDLIM7] | 2.31 ± 0.12 | 2.44 ± 0.17 |  |  |
| FRRSLHDPDGLVATYISEVHEHDG [APMAP] | 4.02 ± 0.28 | 4.01 ± 0.3 |  |  |
| EELEAKRLQCPFEQELLRRQQRLN [FAM107A] | 4.59 ± 0.15 | 4.63 ± 0.21 |  |  |
| SRGACTSHDPQSSRGSRRRRRQRS [KCNA4] | 5.39 ± 0.4 | 5.53 ± 0.32 |  |  |
| QLIDNILEESDIDRDGTINLSEFQ [CIB1] | 3.69 ± 0.35 | 3.89 ± 0.26 |  |  |
| FSEETEKKFEHFSGLLNNQLSPQ [LOXL2] |  |  | 3.57 ± 0.72 | 4.61 ± 0.37 |
| ESYESMELACPAERSGHVAVSDGR [KLHDC2] | 5.08 ± 0.069 | 5.09 ± 0.17 |  |  |
| DFRTKYETELSLRQLVEADINGLR [KRT36] | 3.15 ± 0.15 | 3.38 ± 0.17 |  |  |
| LHVSLGQKLVAAYVLGLLTMVFLR [MOSPD3] | 3.17 ± 0.42 | 2.89 ± 0.28 |  |  |
| MDIESLSVFTEPNRHFYREMQSFS [FBXO33] | 2.39 ± 0.33 | 2.3 ± 0.24 |  |  |
| KVSGNRCASPVTGPGSKRDAHFCA [ESR2] | 2.76 ± 0.44 | 2.79 ± 0.16 |  |  |
| ISKMEPLEIPVETITSEVIEKCTT [CRY1] | 4.08 ± 0.64 | 4.32 ± 0.2 |  |  |
| TGVFITLSIVLERMRYEGVVDIFQ [PTPRD] |  | 3.66 ± 0.2 |  |  |
| QHRKINPKNREYDRFYVINYLVRL [ZNF277] | 3.16 ± 1.1 | 2.29 ± 0.64 |  |  |
| VLMCGFPFLLLFLGNFFTTLRVVH [TMEM120A] | 2.95 ± 0.24 | 3.23 ± 0.48 |  |  |

| Sequence | protein stability index [1] | protein stability index [2] | protein stability index (treatment: DMSO, c terminus: native) | protein stability index (treatment: MLN4924 1 uM, 8 h, c terminus: native) |
| --- | --- | --- | --- | --- |
| MSLRNRLSKSRENPEEDEDQRNPA [SOAT1] | 5.58 ± 0.14 | 5.45 ± 0.14 |  |  |
| LLQRELAQEDSLNKLALQYGCKVA [LYSMD4] | 2.21 ± 0.34 | 2.52 ± 0.57 |  |  |
| INSRRWCSNLTPNVPNVCRMYCSD [SPACA3] | 2.13 ± 0.26 | 2.42 ± 0.33 |  |  |
| QLKACTNFDDILNVCDDYDVTCNE [KCNG1] | 4.42 ± 0.16 | 4.63 ± 0.085 |  |  |
| NINDRIKELGTLIPKSSDPEMRWN [TFE3] | 3.58 ± 0.33 | 3.77 ± 0.17 |  |  |
| VVGWFVLFYKPGIVLLLALAKYLK [GULP1] | 2.25 ± 0.41 | 2.37 ± 0.56 |  |  |
| DGLVGMAIVGGMALGVAGLAGLIG [FIS1] | 2.33 ± 0.6 | 2.09 ± 0.5 |  |  |
| AIPITELTKSQVQDKPYKCTDCGK [ZNF8] | 4.25 ± 0.2 | 4.3 ± 0.21 |  |  |
| ILAIIAKEGDCAPEEKIWEELSVL [MAGEA6] | 2.44 ± 0.26 | 2.48 ± 0.43 |  |  |
| LMKESLQTGDLLSTFHTISPSFQL [PLAGL1] | 2.24 ± 0.13 | 2.17 ± 0.16 |  |  |
| DHSFSLELGSEVDITEGDRKPDYT [ATF4] | 5.2 ± 0.29 | 5.34 ± 0.18 |  |  |
| VNLYLGRSHFLWKEPATMSWLEEN [TCF25] | 2.36 ± 0.53 | 2.54 ± 0.56 |  |  |
| QALGIPATECEFVGSLPVIVVGRL [LPCAT4] | 2.38 ± 0.58 | 2.29 ± 0.66 |  |  |
| QNDNAPEILYPALPTDGSTGVELA [PCDHGA10] | 4.84 ± 0.39 | 5.2 ± 0.18 |  |  |
| QVALLRLTWSELFVLNAAQCSMPL [NR2F2] | 2.97 ± 0.44 | 3 ± 0.41 |  |  |
| RYMLTRDYLTVKVWDLNMEARPIE [PPP2R2C] | 2.51 ± 0.3 | 2.37 ± 0.24 |  |  |
| NIYVHDLLTFQQITTVSKAKGASL [VPS39] | 2.32 ± 0.3 | 2.27 ± 0.34 |  |  |
| DGYCMFNHVAVAARYAQQKHRIRR [HDAC6] | 3.05 ± 0.42 | 3.53 ± 0.2 |  |  |
| IDFIGQVHKTKEQFGQDGPISVHC [PTPRD] | 2.5 ± 0.26 | 2.81 ± 0.22 |  |  |
| TPLHRDKTPLHQKHAAFVTPDQKY [MYBL2] | 4.11 ± 0.2 | 4.08 ± 0.24 |  |  |
| QAPIAAVLLMHMPAEQAFWCLVQI [TBC1D10A] | 3.25 ± 0.93 | 3.06 ± 0.31 |  |  |
| AVIYLGYCFCGWIVLGPYHVKFRS [MCOLN1] | 3.08 ± 1.1 | 2.86 ± 0.52 |  |  |

| Sequence | protein stability index [1] | protein stability index [2] | protein stability index (treatment: DMSO, c terminus: native) | protein stability index (treatment: MLN4924 1 uM, 8 h, c terminus: native) |
| --- | --- | --- | --- | --- |
| KLLKSMPILQGQIDALLEFDVHPN [SNAP91] | 2.12 ± 0.21 | 2.33 ± 0.17 |  |  |
| PSYKVKVTGLNPKTKYILLMDIVP [TBX5] | 2.73 ± 0.28 | 2.83 ± 0.49 |  |  |
| ALMHELSNDGARRQFEFYLEEMIL [BTBD10] | 2.24 ± 0.037 | 2.36 ± 0.69 |  |  |
| NRDSSMKLSFRARAYGFRGPGPQL [CHGA] | 2.44 ± 0.28 | 2.47 ± 0.42 |  |  |
| RGPDNALLEATGGAAGRSHHLDED [KCTD10] | 5.54 ± 0.26 | 5.42 ± 0.25 |  |  |
| SSSKGTIRLCDMRASALCDRHTKF [PPP2R2B] | 3.01 ± 0.048 | 3.14 ± 0.078 |  |  |
| LIFFLFIGVILFSSAVYFAEADEP [KCNA4] | 2.19 ± 0.086 | 2.38 ± 0.29 |  |  |
| MGPDEYEEMEEEEEEEEEEDEDDD [FBXO3] | 5.42 ± 0.22 | 5.47 ± 0.14 |  |  |
| RKPPVFDENEDVNFDHFEILRAIG [STK32A] | 2.76 ± 0.36 | 2.86 ± 0.31 |  |  |
| EQDSGVQVEGLTVQYLGQAPELLG [ADAMTS4] | 4.38 ± 0.13 | 4.91 ± 0.34 |  |  |
| ACSEGDVNAVRKLLIEGRSVNEHT [ANKRD17] | 4.22 ± 0.45 | 4.64 ± 0.11 |  |  |
| GGYEKASKRMTFQMPKFDLGPLLS [MYOZ1] | 2.54 ± 0.32 | 2.64 ± 0.22 |  |  |
| DSSWYEPSAELVQTRMAVSLTAAE [ZNF232] | 4.26 ± 0.068 | 4.37 ± 0.29 |  |  |
| QEANARERNRMHGLNDALDNLRKV [NEUROD6] | 4.55 ± 0.14 | 4.56 ± 0.23 |  |  |
| IVRLRTIGELLAPAAPFDKKCGRE [WSB1] | 2.64 ± 0.2 | 2.85 ± 0.34 |  |  |
| FGDLSLSLVTVGKHLTARVLCLIV [POMT2] | 3.39 ± 0.76 | 2.71 ± 0.48 |  |  |
| LVVALDVDATLEHVQDPQNTVKVQ [INTS4] | 3.03 ± 0.14 | 3.21 ± 0.2 |  |  |
| IKEVIFMSDKYHDSDEATAARLLF [DCTD] | 2.57 ± 0.27 | 2.62 ± 0.32 |  |  |
| PLSKSSPATTVTSPNSTPAKTIDT [SNAP91] | 5.18 ± 0.19 | 5.18 ± 0.12 |  |  |
| YSTRYGSPKRQLQFYRNLGKSGLR [KCNAB2] | 2.59 ± 0.18 | 2.69 ± 0.19 |  |  |
| SPGKQPGENSDCHRDSSQAIPITE [ZNF8] | 5.4 ± 0.17 | 5.429 ± 0.041 |  |  |
